The text below walks through data of publication PMC5642273.

One may read the Km as the concentration of substrate that gives half-maximal velocity.

Substrate in this data set: CC(C)=CCC/C(C)=C/COP(=O)(O)OP(=O)(O)O
The experiment in a line: purified protein. Particulars: Mn2+.

B1: (+)-limonene synthase [(+)-LS] (Citrus sinensis) (protein)
chain: RRSANYQPSIWDHDFLQSLNSNYTDETYKRRAEELKGKVKTAIKDVTEPLDQLELIDNLQRLGLAYHFEPEIRNILRNIHNHNKDYNWRKENLYATSLEFRLLRQHGYPVSQEVFSGFKDDKVGFICDDFKGILSLHEASYYSLEGESIMEEAWQFTSKHLKEMMITSNSKEEDVFVAEQAKRALELPLHWKAPMLEARWFIHVYEKREDKNHLLLELAKLEFNTLQAIYQEELKDISGWWKDTGLGEKLSFARNRLVASFLWSMGIAFEPQFAYCRRVLTISIALITVIDDIYDVYGTLDELEIFTDAVARWDINYALKHLPGYMKMCFLALYNFVNEFAYYVLKQQDFDMLLSIKHAWLGLIQAYLVEAKWYHSKYTPKLEEYLENGLVSITGPLIITISYLSGTNPIIKKELEFLESNPDIVHWSSKIFRLQDDLGTSSDEIQRGDVPKSIQCYMHETGASEEVAREHIKDMMRQMWKKVNAYTADKDSPLTRTTAEFLLNLVRMSHFMYLHGDGHGVQNQETIDVGFTLLFQPIPLEDKDMAFTASPGTKG
For the protein B1, the Km stood at 13.1 ± 0.6 µM.
